According to article PMC9482650, “Quantitative fragmentomics allow affinity mapping of interactomes” (Nature Communications, 2022):
One block for each binder: values may come before it.

Experiments:
Test in all cases: holdup assay
Set-up in all cases: key: below the threshold = too weak to quantify, mostly under pKd 3.1 to 4
Details in all cases: plain residues with an end cap or a label only (N-terminal biotin on a linker: ado-ado)
APBA1_1, Q02410 = target: T1, APBA1_1, Q02410
T1 sequence (Q02410 651-752, limits assumed, looked up): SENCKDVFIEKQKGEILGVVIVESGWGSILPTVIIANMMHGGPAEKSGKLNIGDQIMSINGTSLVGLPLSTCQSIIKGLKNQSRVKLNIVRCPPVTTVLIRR

CASK, O14936 = target: CASK, O14936
Chain of CASK, O14936 (O14936 487-570): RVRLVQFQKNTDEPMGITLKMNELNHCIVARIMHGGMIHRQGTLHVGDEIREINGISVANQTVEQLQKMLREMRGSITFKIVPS

DLG1_3, Q12959 = target: DLG1_3, Q12959
Chain of DLG1_3, Q12959 (Q12959 457-571): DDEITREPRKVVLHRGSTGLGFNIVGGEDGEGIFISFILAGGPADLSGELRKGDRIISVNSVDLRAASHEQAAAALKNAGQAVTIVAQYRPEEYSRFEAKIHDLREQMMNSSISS

DLG3_3, Q92796 = target: T2, DLG3_3, Q92796
T2 sequence (Q92796 374-475, limits assumed, looked up): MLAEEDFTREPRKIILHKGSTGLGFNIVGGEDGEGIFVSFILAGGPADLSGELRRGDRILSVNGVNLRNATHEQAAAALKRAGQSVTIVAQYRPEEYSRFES

FRMPD2_1, Q68DX3 = target: FRMPD2_1, Q68DX3
Chain of FRMPD2_1, Q68DX3 (Q68DX3 770-861): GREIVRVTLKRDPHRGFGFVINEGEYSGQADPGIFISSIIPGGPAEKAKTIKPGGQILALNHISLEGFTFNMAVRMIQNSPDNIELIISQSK

FRMPD3, Q5JV73 = target: FRMPD3, Q5JV73
Chain of FRMPD3, Q5JV73 (Q5JV73 12-100): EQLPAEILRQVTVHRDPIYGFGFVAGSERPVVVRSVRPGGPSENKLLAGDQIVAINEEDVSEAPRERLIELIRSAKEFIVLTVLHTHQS

GRIP1_4, Q9Y3R0 = target: T3, GRIP1_4, Q9Y3R0
T3 sequence (Q9Y3R0 467-571, limits assumed, looked up): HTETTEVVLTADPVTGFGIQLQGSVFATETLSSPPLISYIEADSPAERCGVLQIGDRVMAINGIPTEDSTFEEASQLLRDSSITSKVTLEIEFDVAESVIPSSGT

GRIP2_4, Q9C0E4 = target: GRIP2_4, Q9C0E4
Chain of GRIP2_4, Q9C0E4 (Q9C0E4 446-548): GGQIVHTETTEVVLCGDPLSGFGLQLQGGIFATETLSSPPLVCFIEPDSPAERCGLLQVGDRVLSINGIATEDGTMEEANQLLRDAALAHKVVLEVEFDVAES

GRIP2_5, Q9C0E4 = target: GRIP2_5, Q9C0E4
Chain of GRIP2_5, Q9C0E4 (Q9C0E4 544-642): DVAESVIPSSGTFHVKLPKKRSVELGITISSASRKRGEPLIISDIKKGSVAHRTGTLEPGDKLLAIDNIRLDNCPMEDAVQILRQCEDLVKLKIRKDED

GRIP2_6, Q9C0E4 = target: GRIP2_6, Q9C0E4
Chain of GRIP2_6, Q9C0E4 (Q9C0E4 648-740): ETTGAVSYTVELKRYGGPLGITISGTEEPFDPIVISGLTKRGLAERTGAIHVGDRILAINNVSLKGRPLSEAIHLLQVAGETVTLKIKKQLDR

HTRA1, Q92743 = target: HTRA1, Q92743
Chain of HTRA1, Q92743 (Q92743 360-477): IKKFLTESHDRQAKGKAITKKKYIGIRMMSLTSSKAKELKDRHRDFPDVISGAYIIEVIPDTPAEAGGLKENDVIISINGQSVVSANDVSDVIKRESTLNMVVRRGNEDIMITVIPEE

HTRA2, O43464 = target: HTRA2, O43464
Chain of HTRA2, O43464 (O43464 355-458): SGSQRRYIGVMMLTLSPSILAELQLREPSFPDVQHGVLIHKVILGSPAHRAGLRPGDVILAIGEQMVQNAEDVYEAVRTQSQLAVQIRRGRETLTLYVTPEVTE

IL16_3, Q14005 = target: IL16_3, Q14005
Chain of IL16_3, Q14005 (Q14005 1107-1207): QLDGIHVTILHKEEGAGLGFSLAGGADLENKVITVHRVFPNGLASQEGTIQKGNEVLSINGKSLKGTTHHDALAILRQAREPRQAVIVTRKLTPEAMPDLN

IL16_4, Q14005 = target: IL16_4, Q14005
Chain of IL16_4, Q14005 (Q14005 1229-1329): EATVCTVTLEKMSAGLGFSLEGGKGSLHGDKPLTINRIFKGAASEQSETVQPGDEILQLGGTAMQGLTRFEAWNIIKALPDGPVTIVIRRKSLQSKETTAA

Inadl_9, Q8NI35 = target: Inadl_9, Q8NI35
Chain of Inadl_9, Q8NI35 (Q8NI35 1530-1615): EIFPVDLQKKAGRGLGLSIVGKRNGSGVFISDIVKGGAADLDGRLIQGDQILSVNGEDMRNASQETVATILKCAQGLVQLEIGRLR

LDB3, O75112 = target: LDB3, O75112
Chain of LDB3, O75112 (O75112 1-94): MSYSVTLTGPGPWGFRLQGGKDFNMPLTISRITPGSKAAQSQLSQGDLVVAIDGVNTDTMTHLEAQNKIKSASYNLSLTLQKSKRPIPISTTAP

LIMK2, P53671 = target: LIMK2, P53671
Chain of LIMK2, P53671 (P53671 143-248): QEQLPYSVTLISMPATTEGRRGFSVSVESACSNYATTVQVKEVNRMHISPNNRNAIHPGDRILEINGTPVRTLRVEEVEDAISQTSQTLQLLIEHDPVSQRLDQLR

LIN7A, O14910 = target: T4, LIN7A, O14910
T4 sequence (O14910 103-200, limits assumed, looked up): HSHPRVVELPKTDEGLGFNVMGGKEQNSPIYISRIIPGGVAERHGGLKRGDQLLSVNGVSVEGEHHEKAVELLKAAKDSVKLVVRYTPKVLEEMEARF

LNX1_1, Q8TBB1 = target: LNX1_1, Q8TBB1
Chain of LNX1_1, Q8TBB1 (Q8TBB1 261-371): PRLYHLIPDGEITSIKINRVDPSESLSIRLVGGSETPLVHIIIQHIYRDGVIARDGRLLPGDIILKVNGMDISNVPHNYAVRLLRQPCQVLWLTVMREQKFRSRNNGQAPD

LNX1_3, Q8TBB1 = target: LNX1_3, Q8TBB1
Chain of LNX1_3, Q8TBB1 (Q8TBB1 500-596): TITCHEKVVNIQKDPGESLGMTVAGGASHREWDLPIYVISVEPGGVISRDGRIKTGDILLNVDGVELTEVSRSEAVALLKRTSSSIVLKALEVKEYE

MAGI1_1, Q96QZ7 = target: MAGI1_1, Q96QZ7
Chain of MAGI1_1, Q96QZ7 (Q96QZ7 1-106): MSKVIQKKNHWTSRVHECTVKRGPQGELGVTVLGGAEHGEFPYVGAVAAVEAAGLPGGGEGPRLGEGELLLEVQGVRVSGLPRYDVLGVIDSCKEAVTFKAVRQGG

MAGI1_2, Q96QZ7 = target: MAGI1_2, Q96QZ7
Chain of MAGI1_2, Q96QZ7 (Q96QZ7 456-580): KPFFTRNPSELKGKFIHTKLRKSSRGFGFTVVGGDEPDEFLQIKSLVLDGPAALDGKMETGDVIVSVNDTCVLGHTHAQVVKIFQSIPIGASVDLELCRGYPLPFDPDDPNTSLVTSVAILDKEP

MAST1, Q9Y2H9 = target: MAST1, Q9Y2H9
Chain of MAST1, Q9Y2H9 (Q9Y2H9 962-1065): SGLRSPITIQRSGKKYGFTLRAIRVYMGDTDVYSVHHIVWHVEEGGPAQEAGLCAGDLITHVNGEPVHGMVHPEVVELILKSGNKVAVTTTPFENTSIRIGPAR

MPP6, Q9NZW5 = target: T5, MPP6, Q9NZW5
T5 sequence (Q9NZW5 125-219, limits assumed, looked up): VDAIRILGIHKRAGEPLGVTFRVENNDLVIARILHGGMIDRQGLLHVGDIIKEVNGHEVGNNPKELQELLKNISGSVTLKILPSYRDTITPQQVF

MPP7, Q5T2T1 = target: T6, MPP7, Q5T2T1
T6 sequence (Q5T2T1 134-230, limits assumed, looked up): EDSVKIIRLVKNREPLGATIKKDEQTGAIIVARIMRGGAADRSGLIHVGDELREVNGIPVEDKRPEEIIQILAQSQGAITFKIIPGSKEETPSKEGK

NHERF4_4, Q86UT5 = target: NHERF4_4, Q86UT5
Chain of NHERF4_4, Q86UT5 (Q86UT5 464-550): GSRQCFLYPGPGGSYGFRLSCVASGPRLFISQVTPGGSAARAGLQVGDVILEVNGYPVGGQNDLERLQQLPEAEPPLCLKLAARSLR

PDZRN4_1, Q6ZMN7 = target: PDZRN4_1, Q6ZMN7
Chain of PDZRN4_1, Q6ZMN7 (Q6ZMN7 213-318): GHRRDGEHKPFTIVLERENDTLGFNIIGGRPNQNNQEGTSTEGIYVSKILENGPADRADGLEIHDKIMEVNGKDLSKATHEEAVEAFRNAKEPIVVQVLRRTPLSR

RAPGEF6, Q8TEU7 = target: T7, RAPGEF6, Q8TEU7
T7 sequence (Q8TEU7 525-625, limits assumed, looked up): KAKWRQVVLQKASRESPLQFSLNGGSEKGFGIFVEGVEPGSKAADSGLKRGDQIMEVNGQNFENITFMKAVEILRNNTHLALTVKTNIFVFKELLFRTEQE

SNTG1, Q9NSN8 = target: T8, SNTG1, Q9NSN8
T8 sequence (Q9NSN8 52-150, limits assumed, looked up): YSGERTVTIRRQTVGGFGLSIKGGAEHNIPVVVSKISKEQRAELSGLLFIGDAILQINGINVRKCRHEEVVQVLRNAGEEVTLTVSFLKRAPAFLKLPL

- pKd (APBA1_1, Q02410): below the threshold
- pKd (CASK, O14936): below the threshold
- pKd (DLG1_3, Q12959): below the threshold
- pKd (DLG3_3, Q92796): below the threshold
- pKd (FRMPD2_1, Q68DX3): below the threshold
- pKd (FRMPD3, Q5JV73): 3.5
- pKd (GRIP1_4, Q9Y3R0): below the threshold
- pKd (GRIP2_4, Q9C0E4): below the threshold
- pKd (GRIP2_5, Q9C0E4): below the threshold
- pKd (GRIP2_6, Q9C0E4): below the threshold
- pKd (HTRA1, Q92743): 3.62
- pKd (HTRA2, O43464): below the threshold
- pKd (IL16_3, Q14005): below the threshold
- pKd (IL16_4, Q14005): below the threshold
- pKd (Inadl_9, Q8NI35): below the threshold
- pKd (LDB3, O75112): below the threshold
- pKd (LIMK2, P53671): below the threshold
- pKd (LIN7A, O14910): 3.74
- pKd (LNX1_1, Q8TBB1): below the threshold
- pKd (LNX1_3, Q8TBB1): below the threshold
- pKd (MAGI1_1, Q96QZ7): below the threshold
- pKd (MAGI1_2, Q96QZ7): below the threshold
- pKd (MAST1, Q9Y2H9): 4.77
- pKd (MPP6, Q9NZW5): below the threshold
- pKd (MPP7, Q5T2T1): below the threshold
- pKd (NHERF4_4, Q86UT5): below the threshold
- pKd (PDZRN4_1, Q6ZMN7): below the threshold
- pKd (RAPGEF6, Q8TEU7): below the threshold
- pKd (SNTG1, Q9NSN8): below the threshold
B2: SLC5A12, Q1EHB4 (peptide)
chain: NNMAFETTHF

- pKd (APBA1_1, Q02410): below the threshold
- pKd (CASK, O14936): below the threshold
- pKd (DLG1_3, Q12959): below the threshold
- pKd (DLG3_3, Q92796): below the threshold
- pKd (FRMPD2_1, Q68DX3): below the threshold
- pKd (FRMPD3, Q5JV73): below the threshold
- pKd (GRIP1_4, Q9Y3R0): below the threshold
- pKd (GRIP2_4, Q9C0E4): below the threshold
- pKd (GRIP2_5, Q9C0E4): 3.51
- pKd (GRIP2_6, Q9C0E4): below the threshold
- pKd (HTRA1, Q92743): 4.68
- pKd (HTRA2, O43464): below the threshold
- pKd (IL16_3, Q14005): below the threshold
- pKd (IL16_4, Q14005): 3.93
- pKd (Inadl_9, Q8NI35): below the threshold
- pKd (LDB3, O75112): below the threshold
- pKd (LIMK2, P53671): below the threshold
- pKd (LIN7A, O14910): below the threshold
- pKd (LNX1_1, Q8TBB1): 3.72
- pKd (LNX1_3, Q8TBB1): below the threshold
- pKd (MAGI1_1, Q96QZ7): below the threshold
- pKd (MAGI1_2, Q96QZ7): below the threshold
- pKd (MAST1, Q9Y2H9): 5.01
- pKd (MPP6, Q9NZW5): below the threshold
- pKd (MPP7, Q5T2T1): below the threshold
- pKd (NHERF4_4, Q86UT5): below the threshold
- pKd (PDZRN4_1, Q6ZMN7): 4.2
- pKd (RAPGEF6, Q8TEU7): below the threshold
- pKd (SNTG1, Q9NSN8): below the threshold
B4: PTH1R, Q03431 (peptide)
chain: LLQEEWETVM

Continued, binder first:

B1: CXCR1, P25024 (peptide)
chain: SSSVNVSSNL
- pKd (APBA1_1, Q02410): below the threshold
- pKd (CASK, O14936): below the threshold
- pKd (DLG1_3, Q12959): below the threshold
- pKd (DLG3_3, Q92796): below the threshold
- pKd (FRMPD2_1, Q68DX3): below the threshold
- pKd (FRMPD3, Q5JV73): below the threshold
- pKd (GRIP1_4, Q9Y3R0): below the threshold
- pKd (GRIP2_4, Q9C0E4): below the threshold
- pKd (GRIP2_5, Q9C0E4): below the threshold
- pKd (GRIP2_6, Q9C0E4): below the threshold
- pKd (HTRA1, Q92743): below the threshold
- pKd (HTRA2, O43464): below the threshold
- pKd (IL16_3, Q14005): below the threshold
- pKd (IL16_4, Q14005): below the threshold
- pKd (Inadl_9, Q8NI35): below the threshold
- pKd (LDB3, O75112): below the threshold
- pKd (LIMK2, P53671): below the threshold
- pKd (LIN7A, O14910): below the threshold
- pKd (LNX1_1, Q8TBB1): 3.59
- pKd (LNX1_3, Q8TBB1): below the threshold
- pKd (MAGI1_1, Q96QZ7): below the threshold
- pKd (MAGI1_2, Q96QZ7): below the threshold
- pKd (MAST1, Q9Y2H9): 4.45
- pKd (MPP6, Q9NZW5): below the threshold
- pKd (MPP7, Q5T2T1): below the threshold
- pKd (NHERF4_4, Q86UT5): below the threshold
- pKd (PDZRN4_1, Q6ZMN7): below the threshold
- pKd (RAPGEF6, Q8TEU7): below the threshold
- pKd (SNTG1, Q9NSN8): below the threshold

B3: ATRNL1, Q5VV63 (peptide)
chain: HLSTRQGTCV
- pKd (APBA1_1, Q02410): below the threshold
- pKd (CASK, O14936): below the threshold
- pKd (DLG1_3, Q12959): 3.58
- pKd (DLG3_3, Q92796): 3.85
- pKd (FRMPD2_1, Q68DX3): 4.1
- pKd (FRMPD3, Q5JV73): below the threshold
- pKd (GRIP1_4, Q9Y3R0): below the threshold
- pKd (GRIP2_4, Q9C0E4): below the threshold
- pKd (GRIP2_5, Q9C0E4): below the threshold
- pKd (GRIP2_6, Q9C0E4): below the threshold
- pKd (HTRA1, Q92743): 4.91
- pKd (HTRA2, O43464): below the threshold
- pKd (IL16_3, Q14005): below the threshold
- pKd (IL16_4, Q14005): below the threshold
- pKd (Inadl_9, Q8NI35): 4.1
- pKd (LDB3, O75112): below the threshold
- pKd (LIMK2, P53671): below the threshold
- pKd (LIN7A, O14910): below the threshold
- pKd (LNX1_1, Q8TBB1): 4.34
- pKd (LNX1_3, Q8TBB1): below the threshold
- pKd (MAGI1_1, Q96QZ7): below the threshold
- pKd (MAGI1_2, Q96QZ7): 4.65
- pKd (MAST1, Q9Y2H9): 4.35
- pKd (MPP6, Q9NZW5): below the threshold
- pKd (MPP7, Q5T2T1): below the threshold
- pKd (NHERF4_4, Q86UT5): 3.94
- pKd (PDZRN4_1, Q6ZMN7): 3.76
- pKd (RAPGEF6, Q8TEU7): below the threshold
- pKd (SNTG1, Q9NSN8): below the threshold

B5: KCNJ9, Q92806 (peptide)
chain: LPPPESESKV
- pKd (APBA1_1, Q02410): below the threshold
- pKd (CASK, O14936): below the threshold
- pKd (DLG1_3, Q12959): below the threshold
- pKd (DLG3_3, Q92796): below the threshold
- pKd (FRMPD2_1, Q68DX3): below the threshold
- pKd (FRMPD3, Q5JV73): below the threshold
- pKd (GRIP1_4, Q9Y3R0): below the threshold
- pKd (GRIP2_4, Q9C0E4): below the threshold
- pKd (GRIP2_5, Q9C0E4): below the threshold
- pKd (GRIP2_6, Q9C0E4): below the threshold
- pKd (HTRA1, Q92743): below the threshold
- pKd (HTRA2, O43464): below the threshold
- pKd (IL16_3, Q14005): below the threshold
- pKd (IL16_4, Q14005): below the threshold
- pKd (Inadl_9, Q8NI35): below the threshold
- pKd (LDB3, O75112): below the threshold
- pKd (LIMK2, P53671): below the threshold
- pKd (LIN7A, O14910): below the threshold
- pKd (LNX1_1, Q8TBB1): below the threshold
- pKd (LNX1_3, Q8TBB1): below the threshold
- pKd (MAGI1_1, Q96QZ7): below the threshold
- pKd (MAGI1_2, Q96QZ7): below the threshold
- pKd (MAST1, Q9Y2H9): 4.29
- pKd (MPP6, Q9NZW5): below the threshold
- pKd (MPP7, Q5T2T1): below the threshold
- pKd (NHERF4_4, Q86UT5): below the threshold
- pKd (PDZRN4_1, Q6ZMN7): below the threshold
- pKd (RAPGEF6, Q8TEU7): below the threshold
- pKd (SNTG1, Q9NSN8): 4.31
